Assay results: patent US20110293610A1 (published 2011)

T1: TNF-beta (human, UniProt P01374 35-205)
T1 construct: also called TNFβ; Tumour Necrosis Factor-beta
T1 sequence (looked up): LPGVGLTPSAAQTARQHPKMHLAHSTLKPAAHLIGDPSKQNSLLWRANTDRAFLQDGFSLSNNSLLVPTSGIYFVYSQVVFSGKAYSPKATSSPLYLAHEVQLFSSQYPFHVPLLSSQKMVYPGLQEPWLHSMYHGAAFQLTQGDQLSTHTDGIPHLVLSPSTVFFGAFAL


Columns and labels:
Experiment in all cases: phage ELISA
[1] = target: T2, TNF-alpha (human, UniProt P01375 77-233)
T2 construct: also called TNFα; TNF-α

[2] = target: T3, B Lymphocyte Stimulator, soluble form (human) (human, UniProt Q9Y275 134-285, biotinylated with NHS-biotin where used as biotinylated B Lymphocyte Stimulator)
T3 construct: Coated on plastic, captured on streptavidin plates, amine-coupled to a CM5 chip or free in solution, depending on the assay; also called BLyS; immobilized B Lymphocyte Stimulator

[3] = target: T4, TRAIL (human, UniProt P50591 114-281)
T4 construct: also called TNF-related apoptosis inducing ligand

[4] = target: T1, TNF-beta
[5] = target: LIGHT (human, UniProt O43557 74-240, limits assumed)
LIGHT, sequence (O43557 74-240 limits assumed): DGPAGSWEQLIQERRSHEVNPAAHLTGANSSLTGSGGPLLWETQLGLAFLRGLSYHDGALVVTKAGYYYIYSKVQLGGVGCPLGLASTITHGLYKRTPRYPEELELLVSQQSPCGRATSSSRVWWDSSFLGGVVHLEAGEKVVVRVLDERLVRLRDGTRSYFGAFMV

T4 sequence (P50591 114-281 limits assumed): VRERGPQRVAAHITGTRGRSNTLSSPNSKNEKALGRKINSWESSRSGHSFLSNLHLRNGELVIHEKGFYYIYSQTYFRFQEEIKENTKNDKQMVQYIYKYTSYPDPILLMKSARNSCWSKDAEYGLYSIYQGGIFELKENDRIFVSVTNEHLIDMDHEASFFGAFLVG
T2 sequence (P01375 77-233 limits assumed): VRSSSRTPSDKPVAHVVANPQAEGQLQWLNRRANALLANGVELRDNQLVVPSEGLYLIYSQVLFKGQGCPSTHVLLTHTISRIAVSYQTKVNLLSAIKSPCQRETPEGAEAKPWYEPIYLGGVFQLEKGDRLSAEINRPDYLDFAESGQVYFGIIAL

binding result [1] | binding result [2] | binding result [3] | binding result [4] | binding result [5] | Binder
no binding | binds | no binding | no binding | no binding | I078D02 (scFv) scFv: QVQLQQSGAEVKKPGASVKVSCKASGYTFTSYGISWVRQAPGQGLEWMGWISAYNGNTNYAQKLQGRVTMTTDTSTSTAYMELRSLRSDDTAVYYCARVYYDILTGYNLFFDYWGKGTMVTVSSGGGGSGGGGSGGGGSQSVLTQPASVSGSPGQSITISCTGTSSDVGGYNYVSWYQQHPGKAPKLMIYEGSKRPSGVSNRFSGSKSGNTASLTISGLQAEDEADYYCSSYTTRSTRVFGGGTKLTVLG
no binding | binds | no binding | no binding | no binding | I078H08 (scFv) scFv: QVQLVQSAAEVKKPGASVKVSCKASGYTFTSYGISWVRQAPGQGLEWMGWISAYNGNTNYAQKLQGRVTMTTDTSTSTAYMELRSLRSDDTAVYYCARVYYDILTGYNLFFDYWGRGTTVTVSSGGGGSGGGGSGGGGSQSVLTQPASVSGSPGQSITISCTGTSSDVGGYNYVSWYQQHPGKAPKLMIYEGSKRPSGVSNRFSGSKSGNTASLTISGLQAEDEADYYCSSYTTRSTRVFGGGTKLTVLG
no binding | binds | no binding | no binding | no binding | I067F05 (scFv) scFv: QVQLQQSGAEVKKPGSSVKVSCKASGGTFSSYAISWVRQAPGQGLEWMGRIIPIVNMANYAQKFQGRVTLTADKSTGTAYMELTSLRSEDTAVYYCARENYDSLTGYYGAFDIWGKGTMVTVSSGGGGSGGGGSGGGGSQSVLTQPASVSGSPGQSITISCTGTSSDVGGYNYVSWYQQHPGKAPKLMIYEGSKRPSGVSNRFSGSKSGNTASLTISGLQAEDEADYYCSSYTTRSTRVFGGGTKLTVLG
no binding | binds | no binding | no binding | no binding | I026C04-R (scFv) scFv: QVQLVQSGAEVKKPGSSVKVSCRASGGSFNRHAISWVRQAPGRGLEWMGGILPMYGTANYAQKFQGRVTITADKLTNTVYMDLSRLRYEDTAVYYCARELGLSIVGATTGALDMWGKGTLVTVSSGGGGSGGGGSGGGGSAQSVLTQPPSVSAAPGQKVTISCSGSSSNIGNNYVSWYQQIPGTAPKLLIYENNKRPSGIPDRFSGSKSGASATLDITGLQTGDEADYYCGTWHSSQVVFGGGTKLTVLG
no binding | binds | no binding | no binding | no binding | I026C04 (scFv) scFv: QVQLVQSGAEVKKPGSSVKVSCRASGGSFNHAISWVRQAPGRGLEWMGGILPMYGTANYAQKFQGRVTITADKLTNTVYMDLSRLRYEDTAVYYCARELGLSIVGATTGALDMWGKGTLVTVSSGGGGSGGGGSGGGGSAQSVLTQPPSVSAAPGQKVTISCSGSSSNIGNNYVSWYQQIPGTAPKLLIYENNKRPSGIPDRFSGSKSGASATLDITGLQTGDEADYYCGTWHSSQVVFGGGTKLTVLG
no binding | binds | no binding | no binding | no binding | I025B09 (scFv, also called I0025B09) scFv: QVHLVQSGAEVKKPGSSVKVSCRASGGSFNHAISWVRQAPGRGLEWMGGILPMYGTANYAQKFQGRVTITADKLTNTVYMDLSRLRYEDTAVYYCARELGLSIVGATTGALDMWGKGTLVTVSSGGGGSGGGGSGGGGSAQSVLTQPPSVSAAPGQKVTISCSGSSSNIGNNYVSWYQQIPGTAPKLLIYENNKRPSGIPDRFSGSKSGASATLDITGLQTGDEADYYCGTWHSSQVVFGGGTKLTVLG
no binding | binds | no binding | no binding | no binding | I025B06 (scFv) scFv: QVQLVQSGAEVKKPGSSVKVSCRASGGSFNHAISWVRQAPGRGLEWMGGILPMYGTANYAQKFQGRVTITADKLTNTVYMDLSRLRYEDTAVYYCARELGLSIVGATTGALDMWGKGTLVTVSSGGGGSGGGGSGGGGSAQSVLTQPPSVSAAPGQKVTISCSGSSSNIGNNYVSWYQQIPGTAPKLLIYENNKRPSGIPDRFSGSKSGASAALDITGLQTGDEADYYCGTWHSSQVVFGGGTKLTVLG
no binding | binds | no binding | no binding | no binding | I065D08 (scFv) scFv: GVQLVQSGAEVKKPGASVKVSCKASGYTFTSYGISWVRQAPGQGLEWMGWISAYNGNTNYAQKLQGRVTMTTDTSTSTAYMELRSLRSDDTAVYYCARTPSSVYDLLTGYYHYFYSYMDVWGRGTMVTVSSGGGGSGGGGSGGGGSQSVLTQPASVSGSPGQSITISCTGTSSDVGGYNYVSWYQQHPGEAPKLMIYEGSKRPSGVSNRFSGSKSGNTASLTISGLQAEDEADYYCSSYTTRSTRVFGGGTKLTVLG
no binding | binds | no binding | no binding | no binding | I071B03 (scFv) scFv: QVQLQQSGAEVKKPGASVKVSCKASGYTFTKYTMHWVRQAPGQGPEWMGWINGGSGDTKYSRKFQGRVTITKDTSASAAYMELSSLGSEDTALYYCARATYDPLTGYSFDGFDIWGQGTMVTVSSGGGGSGGGGSGGGGSQSVLTQPASVSGSPGQSITISCTGTSSDVGGYNYVSWYQQHPGKAPKLMIYEGSKRPSGVSNRFSGSKSGNTASLTISGLQAEDEADYYCSSYTTRSTRVFGGGTKLTVLD
no binding | binds | no binding | no binding | no binding | I030A10 (scFv) scFv: QVQLVQSGAEVKKPGSSVKVSCRASGGSFNHAISWVRQAPGRGLEWMGGILPMYGTANYAQKFQGRVTITADKLTNTVYMDLSRLRYEDTAVYYCARELGLSIVGATTGALDMWGRGTLVTVSSGGGGSGGGGSGGGGSAQAVLTQPSSVSGAPGQRVIISCTGSSSNIGPDYDVHWYQQLPGTAPKLLIYGNNNRPSGVPDRFSGSKSGTSASLAITGLQAEDEAHYYCQSYGSSLSGVVFGGGTKVTVLG
no binding | binds | no binding | no binding | no binding | I002A01-R (scFv) scFv: QVQLVQSGAEVKKPGSSVKVSCRASGGSFNRHAISWVRQAPGRGLEWMGGILPMYGTANYAQKFQGRVTITADKLTNTVYMDLSRLRYEDTAVYYCARELGLSIVGATTGALDMWGKGTLVTVSSGGGGSGGGGSGGGGSALPVLTQPPSVSVAPGQTATLTCGGTNFGRQSVHWYQQKPGQAPVLAIYHDDVRPSGIPERLSGSKSGNTATLTISRVEAGDEAAYYCQVWDSGSDVVVFGGGTKLTVLG
no binding | binds | no binding | no binding | no binding | I002A01-K (scFv) scFv: QVQLVQSGAEVKKPGSSVKVSCRASGGSFNKHAISWVRQAPGRGLEWMGGILPMYGTANYAQKFQGRVTITADKLTNTVYMDLSRLRYEDTAVYYCARELGLSIVGATTGALDMWGKGTLVTVSSGGGGSGGGGSGGGGSALPVLTQPPSVSVAPGQTATLTCGGTNFGRQSVHWYQQKPGQAPVLAIYHDDVRPSGIPERLSGSKSGNTATLTISRVEAGDEAAYYCQVWDSGSDVVVFGGGTKLTVLG
no binding | binds | no binding | no binding | no binding | I068B04 (scFv) scFv: QVQLVQSGAEVKKPGSSVKVSCKASGGTVSSRTISWVRQAPGQGLEWMGGSLPPSGAPIYAQKFQGRVAITADALTNTAFMELRSLKSDDTAVYYCARDQGRYLDLWGRGTLVTVSSGGGGSGGGGSGGGGSALPVLTQPPSASATPGQRVTISCSGSSSNIGSNYVYWYQQLPGTAPKVLIYRNNQRPSGVPDRFSGSRSGTSASLAISGLRSEDEADYYCATWDDSLSGPVFGGGTKVTVLG
no binding | binds | no binding | no binding | no binding | I003C06 (scFv) scFv: QVQLVQSGAEVKKPGSSVKVSCRASGGSFNHAISWVRQAPGRGLEWMGGILPMYGTANYAQKFQGRVTITADKLTNTVYMDLSRLRYEDTAVYYCARELGLSIVGATTGALDMWGKGTLVTVSSGGGGSGGGGSGGGGSALPVLTQPPSVSVAPGQTATLTCGGTNFGRQSVHWYQQKPGQAPVLAIYHDDVRPSGIPERLSGSKSGNTATLTISRVEAGDEAAYYCQVWDSGSDVVVFGGGTKLTVLG
